This note sets out measurements from publication PMC9798254.

Substrate in series [1]: O=P(O)(O)OC[C@@H](O)[C@H]1O[C@H](OP(=O)(O)O)[C@@H](O)[C@@H](O)[C@@H]1O
The series is described as follows: purified protein. To be noted: 100 mM Tris/HCl pH 7.8, 5 mM MgCl2, 25°C.

Substrate in series [2]: O=P(O)(O)OC[C@@H](O)[C@H]1O[C@@H](OP(=O)(O)O)[C@@H](O)[C@@H](O)[C@@H]1O
The series is described as follows: purified protein. The settings on record: 100 mM Tris/HCl pH 7.8, 5 mM MgCl2, 25°C.

B1: ecGmhB (Escherichia coli K-12) (protein)
chain: MAKSVPAIFLDRDGTINVDHGYVHEIDNFEFIDGVIDAMRELKKMGFALVVVTNQSGIARGKFTEAQFETLTEWMDWSLADRDVDLDGIYYCPHHPQGSVEEFRQVCDCRKPHPGMLLSARDYLHIDMAASYMVGDKLEDMQAAVAANVGTKVLVRTGKPITPEAENAADWVLNSLADLPQAIKKQQKPAQ
Regarding B1, in the series “purified protein [1]”, the Km amounted to 117 ± 15 µM, the catalytic constant (kcat) is 3.5 ± 0.2 s⁻¹ and the kcat/Km worked out at 29900 M⁻¹ s⁻¹. Moreover, in the series “purified protein [2]”, the Km is 2.3 ± 0.3 µM, the turnover number (kcat) turned out to be 35.7 ± 1.1 s⁻¹ and the kcat/Km came out at 1.55e+07 M⁻¹ s⁻¹.

By Km is commonly meant the concentration of substrate that gives half-maximal velocity. The kcat is the number of substrate molecules converted per active site and unit of time at saturation. As usually defined, the kcat/Km is the turnover number divided by the Michaelis constant.
